{"source": "patent US20170165338A1", "molecular_target": "HLA-A*02 (human)", "assay": "UV-exchange b2m ELISA"}
{"binder": "SLTEVSLPL", "note": "[…]", "values": [{"measurement": "peptide exchange yield", "result": "50 to 75", "unit": "%"}]}
